Tested on: metastatic (Stage IV) squamous or non-squamous NSCLC
Experiment: Randomized first-line trial: zimberelimab vs domvanalimab + zimberelimab vs etrumadenant + domvanalimab + zimberelimab; cORR and PFS in ITT and biomarker selected subsets
Format: in vivo, human
Settings: for Events: PFS events; for HR vs. Low: PFS; for PFS: median
Experimental: The potential treatment benefit of zimberelimab monotherapy vs. domvanalimab plus zimberelimab combination therapy vs. etrumadenant plus domvanalimab plus zimberelimab combination therapy was evaluated in 150 people as a first-line treatment for metastatic (Stage IV) squamous or non-squamous NSCLC. Participants were randomized 1:1:1 across the three study arms and treated until disease progression or loss of clinical benefit. Arm 1 received zimberelimab 360 mg IV Q3W (Arm 1=Z). Arm 2 received domvanalimab 15 mg/kg IV Q3W and zimberelimab 360 mg IV Q3W (Arm 2=DZ). Arm 3 received domvanalimab 15 mg/kg IV Q3W, zimberelimab 360 mg IV Q3W, and etrumadenant 150 mg PO QD (Arm 3=EDZ). Participants in the zimberelimab monotherapy arm (Arm 1) with confirmed progression had the option to cross over to the triplet arm (Arm 3).
EGFR and ALK mutational testing was not required for participants with squamous histology.
The co-primary endpoints for this study were objective response rate (ORR) and progression free survival (PFS). ORR was defined as the percentage of participants with a best overall response (BOR) of either compete response (CR) or partial response (PR). Participants with measurable disease at baseline who discontinued prior to their first scheduled scan were considered non-responders. PFS was defined from the time of randomization until first documentation of disease progression, or death from any cause, whichever occurred first. In addition to the co-primary endpoints, disease control rate (DCR, defined as the percentage of participants with a BOR of CR, PR, or stable disease (SD) for >6 months), duration of response (DoR, defined as the time from first documentation of disease response (CR or PR) until first documentation of confirmed progressive disease) and overall survival (OS, defined as the time from randomization until death due to any cause) were also evaluated as exploratory endpoints. Efficacy analyses were based on the intent-to-treat (ITT) population, which comprises all randomized participants.
As part of an exploratory analysis, clinical outcomes in biomarker selected subsets were investigated retrospectively. Central submission of adequate tumor tissue and central confirmation of PD-L1 status was not required for study enrollment. Thus, the number of biomarker evaluable patients (BEP) varied by biomarker and was less than the ITT population. Expression levels of CD155, CD226, and CD73 were measured in baseline tumor biopsy samples (e.g., formalin-fixed, paraffin-embedded tissue or freshly cut, serial unstained sections), along with baseline expression level of PD-L1. The baseline samples were archival tumor samples obtained ≤24 months prior to screening or fresh biopsy samples obtained prior to the first dose of treatment. PD-L1 expression level in the BEP subset was measured at a central lab using the Ventana SP263 IHC assay, while enrollment in the trial was based on PD-L1 expression ([…] TC or TPS) locally assessed by Ventana SP263 assay or PharmDx 22C3 assay. CD155, CD226 and CD73 expression levels were measured at a central lab as described in Example L. PD-L1, CD155, CD226, and CD73 expression at baseline are summarized in Table 3. The best predictive biomarker of activity in Arm 1 was CD155 (e.g., CD155 low). At least three biomarkers (e.g., PD-L1 high, CD155 high, and CD73 low) enrich for clinical activity of domvanalimab and there was an even greater enhancement in patients that fulfill two of the biomarkers (analyses not shown).
Without rescoring CD155 intensity (i.e., using the original values scored by the pathologist), expression was characterized by two different scoring algorithms—namely, % TC and % TC 2-3+. The coefficient of determination (R^2 value) was used to look at the variance between each approach and CD155 expression characterization by H-scores. While % TC 2-3+ and H-score are highly concordant (R^2 value of 0.94), less concordance was observed between % TC and H-score (R^2 value of 0.71). […]

[1] = CD155 High (2+ or 3+ % TC ≥ 40%)
[2] = CD155 Low (2+ or 3+ % TC < 40%)

B1: zimberelimab (antibody, chains of the INN, looked up, V domains shown)
VH: QLQLQESGPGLVKPSETLTLTCTVSADSISSTTYYWVWIRQPPGKGLEWIGSISYSGSTYYNPSLKSRVTVSVDTSKNQFSLKLNSVAATDTALYYCARHLGYNGRYLPFDYWGQGTLVTVSS
VL: QSALTQPASVSGSPGQSITISCTGTSSDVGFYNYVSWYQQHPGKAPELMIYDVSNRPSGVSDRFSGSKSGNTASLTISGLQAEDEADYYCSSYTSISTWVFGGGTKLTVL
notes: zimberelimab monotherapy 360 mg IV Q3W; anti-PD-1 antibody
BEP for CD155, unselected
  Event Rate: 65%
  cORR: 32%
  PFS: 5.4 mo
CD73 High: ≥61% TC, BEP
  cORR: 42%
  Events: 68%
  PFS: 9.6 mo
CD73 Low: <61% TC, BEP
  cORR: 12%
  Events: 65%
  PFS: 3.5 mo
[1]
  Event Rate: 82%
  cORR: 18%
  PFS: 3.5 mo
CD155 High: H-score ≥ 135, BEP
  cORR: 24%
  Events: 82%
  PFS: 3.5 mo
[2]
  Event Rate: 47%
  cORR: 47%
  PFS: 9.7 mo
CD155 Low: H-score < 135, BEP
  cORR: 41%
  Events: 47%
  PFS: 9.7 mo
CD226 High: ≥4% IC, BEP
  cORR: 39%
  Events: 69%
  PFS: 5.4 mo
CD226 Low: <4% IC, BEP
  cORR: 27%
  Events: 73%
  PFS: 2.7 mo
ITT population
  PFS Events (%): (64%)
  PFS Median: 5.4 mos
ITT population, number of events, n = 50 per arm
  PFS Events: 32
ITT population, planned interim analysis
  cORR: 30%
PD-L1 High: ≥50% TC, BEP
  cORR: 33%
  Events: 67%
  PFS: 5.7 mo
PD-L1 Low: <50% TC, BEP
  cORR: 27%
  Events: 60%
  PFS: 5.4 mo
CD73 High (≥61% TC) vs. Low within the arm
  HR vs. Low: 0.63
CD155 High (H-score ≥ 135) vs. Low within the arm
  HR vs. Low: 0.38
CD226 High (≥4% IC) vs. Low within the arm
  HR vs. Low: 0.473
PD-L1 High (≥50% TC) vs. Low within the arm
  HR vs. Low: 1.04

From US20260266828A1, “BIOMARKERS FOR PREDICTING CANCER TREATMENT EFFICACY” (Arcus Biosciences, Inc., priority 2023, published 2026)
